Source: patent US20260200990A1, “MODIFIED LONG PEPTIDES SUITABLE FOR USE IN IMMUNISATION” (ISABELLA PHARMA B.V., priority 2022, published 2026)

Key:
[1] = Stability of peptide mixtures under long term and accelerated storage (UPLC); type: physicochemical; conditions: peptide in mixture of 6 peptides
Protocol: To examine the effect on stability of peptides that contain cystine (oxidized, C (C)) present in a mixture of 6 peptides, two examples of mixtures of both non-cysteine-containing (NCC1-6) and cystine-containing (SEQ ID NO: 1-6) peptides were assessed. Typical chromatograms of the two mixtures are depicted in FIG. 2. Both mixtures were placed on two different storage conditions, ‘long term storage condition’ (i.e. −20±5° C.) and ‘accelerated storage condition’ (i.e. 5±3° C.).
The purity, the level of impurities, and the quantification per peptide of both mixtures are determined by reversed phase rapid UPLC using a mobile phase gradient of ACN/IPA and water with TFA, and UV detection at λ=220 nm. The method quantifies main peaks and impurities in mixtures of peptides. The reporting threshold for the method is 0.10% a/a.
Both mixtures of six peptides were stored under the two conditions described and by using the analytical method as described. The stability was monitored. The quantity of each of the peptides present in the mix (assay values), the purity, and the individual impurities were measured at several timepoints over a period of 3 months. […] Furthermore, focussing on the individual impurities it is shown that no significant degradation has taken place as all levels remain constant and no new impurities have formed.

[2] = Stability of cysteine and cystine-containing peptides in 20% v/v DMSO in WFI (UPLC-UV-MS purity); type: physicochemical; conditions: room temperature
Protocol: To examine the effect on stability of a peptide that contains cysteine(s) (non-oxidized, C) or cystine(s) (oxidized, C (C)) in a formulation matrix (20% v/v DMSO in WFI (water for injection), four non-oxidized (SEQ ID NO: 1, 2, 3 and 4) and their oxidized, cystine-containing, peptides were manufactured and individually examined in 20% v/v DMSO (aq.)
Each peptide (2.0 mg) was dissolved in 2.0 ml of 0.09% TFA in H2O: acetonitrile (1:1, v/v). Aliquots of 200 μL were transferred to a 1 mL amber vial and then freeze dried overnight. An aliquot (0.2 mg) was then redissolved in 20% v/v DMSO in WFI (1 mL). After swirling for 2 minutes, a sample was analyzed by UPLC-UV-MS. The remainder of the sample was stored at room temperature and analyzed at different time intervals (1 h, 2 h, 3 h, 4 h). The identity and purity of the purified peptides were then determined by UPLC-UV-MS on a Waters Acquity UPLC/TQD system using an C18 Waters Acquity BEH130 analytical column (1.7 μm particle size, 2.1×150 mm, flow 0.4 mL/min) with a linear gradient (5% B to 95% B, linear gradient in 10 min). The absorbance was measured at 220 nm.
MassLynx v4.1 was used to integrate the individual peaks of the chromatogram in the region of the observed peptide-derived signals. The following ApexTrack peak detection parameters were used for integration: peak-to-peak baseline noise was set at automatic, peak width at 5% height was set at automatic, baseline start threshold of 0.05% and baseline end threshold of 0.05%. The detect shoulder function was turned on. The following response thresholds were set: relative height of 0.20 and relative area of 0.10. After the peak of the desired peptide was identified by MS, the corresponding integral of the peak in the UV chromatogram is reported in Table 2 as percentage of the total integrated peaks, purity (% a/a).
Purity of the non-oxidized and oxidized peptide composition over time was evaluated over 4 h. Additional mass adducts, consistent with the formation of intermolecular or intramolecular disulfide bonds, increased over time in all spectra of cysteine-containing peptides compared to cystine-containing peptides. The purity of the non-oxidized peptides set forth in SEQ ID NO: 1, 3 and 4 declined from >90% a/a at to less than 80% a/a with the lowest stability observed for SEQ ID NO: 1 with a purity of 64% a/a after 4 h. For the cystine-containing peptide analogs, the purity remained >90% a/a after 4 h.

For “HLSLRGLPVCAFSSAGPCALRFTSA [Cystine(C(C)) containing SEQ ID NO: 1]”, the “Assay (net peptide content) (mg/vial)” value ([1]; Initial) was 0.24 mg/vial, the “Assay (net peptide content) (mg/vial)” value ([1]; Storage at 5 ± 3° C., T1M) was 0.23 mg/vial and the “Assay (net peptide content) (mg/vial)” value ([1]; Storage at 5 ± 3° C., T2M) was 0.24 mg/vial. The “Assay (net peptide content) (mg/vial)” value ([1]; Storage at 5 ± 3° C., T3M) was 0.23 mg/vial, the “Assay (net peptide content) (mg/vial)” value ([1]; Storage at −20 ± 5° C., T2M) was 0.24 mg/vial and the “Assay (net peptide content) (mg/vial)” value ([1]; Storage at −20 ± 5° C., T3M) was 0.24 mg/vial. The “Purity (% a/a)” value ([2]; Time 0 h) was 97.14 % a/a, the “Purity (% a/a)” value ([2]; Time 1 h) was 96.67 % a/a and the “Purity (% a/a)” value ([2]; Time 2 h) was 95.10 % a/a. For the same sequence, the “Purity (% a/a)” value ([2]; Time 3 h) was 95.97 % a/a and the “Purity (% a/a)” value ([2]; Time 4 h) was 95.74 % a/a.
